Laboratory results: paper PMC11172336, “Exploring Syndecan-4 and MLP and Their Interaction in Primary Cardiomyocytes and H9c2 Cells” (Cells, 2024)
“And” between values parts separate entries of the source, which are not always exact repeats. Equal entries are not always repeated. Where no end group is shown, it is not given here. The star is where a group is joined. Biotin = O=C1N[C@H]2[C@H](CS[C@H]2CCCCC(=O)*)N1

B1: recombinant 6xHis-MLP L44P (natural protein, human, UniProt P50461 1-194, looked up)
chain: MPNWGGGAKCGACEKTVYHAEEIQCNGRSFHKTCFHCMACRKAPDSTTVAAHESEIYCKVCYGRRYGPKGIGYGQGAGCLSTDTGEHLGLQFQQSPKPARSVTTSNPSKFTAKFGESEKCPRCGKSVYAAEKVMGGGKPWHKTCFRCAICGKSLESTNVTDKDGELYCKVCYAKNFGPTGIGFGGLTQQVEKKE
notes: Muscle LIM Protein (MLP, CSRP3), human, with a patient mutation; source: bought: GenScript (recombinant protein, >80% purity); not shown: His6, N-terminal, kept
B2: recombinant 6xHis-MLP C58G (natural protein, human, UniProt P50461 1-194, looked up)
chain: MPNWGGGAKCGACEKTVYHAEEIQCNGRSFHKTCFHCMACRKALDSTTVAAHESEIYGKVCYGRRYGPKGIGYGQGAGCLSTDTGEHLGLQFQQSPKPARSVTTSNPSKFTAKFGESEKCPRCGKSVYAAEKVMGGGKPWHKTCFRCAICGKSLESTNVTDKDGELYCKVCYAKNFGPTGIGFGGLTQQVEKKE
notes: as for B1
B3: recombinant 6xHis-MLP-WT (natural protein, human, UniProt P50461 1-194, looked up)
chain: MPNWGGGAKCGACEKTVYHAEEIQCNGRSFHKTCFHCMACRKALDSTTVAAHESEIYCKVCYGRRYGPKGIGYGQGAGCLSTDTGEHLGLQFQQSPKPARSVTTSNPSKFTAKFGESEKCPRCGKSVYAAEKVMGGGKPWHKTCFRCAICGKSLESTNVTDKDGELYCKVCYAKNFGPTGIGFGGLTQQVEKKE
notes: Muscle LIM Protein (MLP), encoded by CSRP3, human, 194 amino acids; on the native blot a mixture of monomer, dimer, trimer and tetramer; also called full-length recombinant 6xHis-MLP-WT protein; Muscle LIM Protein; source: bought: GenScript (recombinant protein, >80% purity); not shown: His6, N-terminal, kept

Experiments:
recombinant 6xHis-MLP-WT = molecular target: B3; assay: ELISA; wells coated with 10 µg of WT or mutated full-length 6xHis-MLP recombinant protein in PBS; biotinylated overlapping MLP-WT 30-mer peptides at 2–5 µM for two hours at 37 °C; signal of PBS-coated wells subtracted; details: both partners purified
[1] = molecular target: B2; assay: as above; details: both partners purified
[2] = molecular target: B1; assay: as above; details: both partners purified
[3] = molecular target: the molecule itself; assay: immunoblotting under native conditions; 20 µg of cytoplasmic-, nuclear-, membrane- and cytoskeletal-enriched fractions of adult rat cardiomyocytes in native sample buffer, not boiled, SDS-containing running buffer; blot with C-terminal anti-MLP (#R06991)
[4] = molecular target: the molecule itself; assay: immunoblotting under native conditions; 0.5 µg of recombinant 6xHis-MLP WT or mutated protein in native sample buffer, not boiled, SDS-containing running buffer; blot with C-terminal anti-MLP (#R06991); densitometry

Binder	binding result [4]	other results
Biotin-AAHESEIYCKVCYGRRYGPKGIGYGQGAGC (peptide, UniProt P50461 50-79, looked up, cysteine pairing not given here, Muscle LIM Protein (MLP, CSRP3), human, 30-mer, residues 50-79, covering the end of LIM1 and the NLS; also called MLP peptide aa 50–79; source: synthetic peptide (GenScript, >80% purity)) [biotinylated MLP-WT peptide aa 50-79]		binding result (recombinant 6xHis-MLP-WT): binds; binding result [1]: binds
biotinylated MLP-WT peptide aa 125-154 (N-terminal biotin tag, source: synthetic peptide (GenScript, >80% purity)) peptide: not shown		binding result (recombinant 6xHis-MLP-WT): binds; binding result [2]: binds; binding result [1]: binds
MLP, endogenous in adult rat primary cardiomyocytes (natural protein, UniProt P50463 1-194, looked up, Muscle LIM Protein (MLP, CSRP3), rat; source: endogenous, enriched subcellular fractions of freshly isolated adult rat LV cardiomyocytes) MPNWGGGAKCGACDKTVYHAEEIQCNGRSFHKTCFHCMACRKALDSTTVAAHESEIYCKVCYGRKYGPKGIGFGQGAGCLSTDTGEHLGLQFQQSPKPARAATTSNPSKFSAKFGESEKCPRCGKSVYAAEKVMGGGKPWHKTCFPCAICGKSLESTNVTDKDGELYCKVCYAKNFGPTGIGFGGLTHQVEKKE		stoichiometry N [3]: 2 and 3 and 4
recombinant 6xHis-MLP G72R (natural protein, human, UniProt P50461 1-194, looked up, Muscle LIM Protein (MLP, CSRP3), human, with a patient mutation; source: bought: GenScript (recombinant protein, >80% purity); not shown: His6, N-terminal, kept) MPNWGGGAKCGACEKTVYHAEEIQCNGRSFHKTCFHCMACRKALDSTTVAAHESEIYCKVCYGRRYGPKGIRYGQGAGCLSTDTGEHLGLQFQQSPKPARSVTTSNPSKFTAKFGESEKCPRCGKSVYAAEKVMGGGKPWHKTCFRCAICGKSLESTNVTDKDGELYCKVCYAKNFGPTGIGFGGLTQQVEKKE	binds	
recombinant 6xHis-MLP Y66C (natural protein, human, UniProt P50461 1-194, looked up, Muscle LIM Protein (MLP, CSRP3), human, with a patient mutation; source: bought: GenScript (recombinant protein, >80% purity); not shown: His6, N-terminal, kept) MPNWGGGAKCGACEKTVYHAEEIQCNGRSFHKTCFHCMACRKALDSTTVAAHESEIYCKVCYGRRCGPKGIGYGQGAGCLSTDTGEHLGLQFQQSPKPARSVTTSNPSKFTAKFGESEKCPRCGKSVYAAEKVMGGGKPWHKTCFRCAICGKSLESTNVTDKDGELYCKVCYAKNFGPTGIGFGGLTQQVEKKE	binds	
recombinant 6xHis-MLP R64C (natural protein, human, UniProt P50461 1-194, looked up, Muscle LIM Protein (MLP, CSRP3), human, with a patient mutation; source: bought: GenScript (recombinant protein, >80% purity); not shown: His6, N-terminal, kept) MPNWGGGAKCGACEKTVYHAEEIQCNGRSFHKTCFHCMACRKALDSTTVAAHESEIYCKVCYGCRYGPKGIGYGQGAGCLSTDTGEHLGLQFQQSPKPARSVTTSNPSKFTAKFGESEKCPRCGKSVYAAEKVMGGGKPWHKTCFRCAICGKSLESTNVTDKDGELYCKVCYAKNFGPTGIGFGGLTQQVEKKE	binds	
recombinant 6xHis-MLP K69R (natural protein, human, UniProt P50461 1-194, looked up, Muscle LIM Protein (MLP, CSRP3), human, with a patient mutation; source: bought: GenScript (recombinant protein, >80% purity); not shown: His6, N-terminal, kept) MPNWGGGAKCGACEKTVYHAEEIQCNGRSFHKTCFHCMACRKALDSTTVAAHESEIYCKVCYGRRYGPRGIGYGQGAGCLSTDTGEHLGLQFQQSPKPARSVTTSNPSKFTAKFGESEKCPRCGKSVYAAEKVMGGGKPWHKTCFRCAICGKSLESTNVTDKDGELYCKVCYAKNFGPTGIGFGGLTQQVEKKE	binds	
B1	binds	
B2	binds	
recombinant 6xHis-MLP W4R (natural protein, human, UniProt P50461 1-194, looked up, Muscle LIM Protein (MLP, CSRP3), human, with a patient mutation; the eight mutated recombinant proteins are named in the abstract; source: bought: GenScript (recombinant protein, >80% purity); not shown: His6, N-terminal, kept) MPNRGGGAKCGACEKTVYHAEEIQCNGRSFHKTCFHCMACRKALDSTTVAAHESEIYCKVCYGRRYGPKGIGYGQGAGCLSTDTGEHLGLQFQQSPKPARSVTTSNPSKFTAKFGESEKCPRCGKSVYAAEKVMGGGKPWHKTCFRCAICGKSLESTNVTDKDGELYCKVCYAKNFGPTGIGFGGLTQQVEKKE	binds	
recombinant 6xHis-MLP Q91L (natural protein, human, UniProt P50461 1-194, looked up, Muscle LIM Protein (MLP, CSRP3), human, with a patient mutation; source: bought: GenScript (recombinant protein, >80% purity); not shown: His6, N-terminal, kept) MPNWGGGAKCGACEKTVYHAEEIQCNGRSFHKTCFHCMACRKALDSTTVAAHESEIYCKVCYGRRYGPKGIGYGQGAGCLSTDTGEHLGLLFQQSPKPARSVTTSNPSKFTAKFGESEKCPRCGKSVYAAEKVMGGGKPWHKTCFRCAICGKSLESTNVTDKDGELYCKVCYAKNFGPTGIGFGGLTQQVEKKE	binds	
B3		stoichiometry N [4]: 2 and 3 and 4
